Test results published in patent publication US7399847 (GENERAL HOSPITAL, dated 2008).
Positions count from the first letter of the chain named.

T1: PSGL-1 deletion mutant lacking the amino terminal 100 residues (apical domain) (UniProt Q14242 118-412)
T1 construct: range 118-end (end not numbered), on cells; Cotransfected with FTVII; also called Xba1 (label inferred from the order of the endpoints)
T1 sequence: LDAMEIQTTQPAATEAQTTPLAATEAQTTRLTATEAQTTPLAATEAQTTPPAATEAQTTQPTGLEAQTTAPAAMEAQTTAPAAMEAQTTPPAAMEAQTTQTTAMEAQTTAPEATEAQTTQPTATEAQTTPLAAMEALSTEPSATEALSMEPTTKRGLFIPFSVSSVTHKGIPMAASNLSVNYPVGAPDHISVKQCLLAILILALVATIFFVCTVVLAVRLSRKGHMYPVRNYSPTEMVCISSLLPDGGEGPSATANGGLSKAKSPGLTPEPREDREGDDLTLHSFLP

T2: PSGL-1 amino-terminal deletion beginning at precursor P78 (UniProt Q14242 78-412)
T2 construct: range 78-end (end not numbered), on cells; also called further deletion of PSGL
T2 sequence: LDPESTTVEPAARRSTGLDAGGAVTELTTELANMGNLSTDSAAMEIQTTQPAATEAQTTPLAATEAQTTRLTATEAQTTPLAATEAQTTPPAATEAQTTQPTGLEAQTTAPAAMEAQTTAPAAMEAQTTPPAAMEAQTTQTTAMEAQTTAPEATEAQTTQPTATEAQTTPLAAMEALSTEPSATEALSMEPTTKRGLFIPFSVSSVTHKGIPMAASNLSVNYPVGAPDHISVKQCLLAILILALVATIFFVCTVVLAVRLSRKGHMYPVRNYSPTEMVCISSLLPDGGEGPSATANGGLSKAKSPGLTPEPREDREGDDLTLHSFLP

T3: PSGL-1 amino-terminal deletion beginning at precursor A98 (UniProt Q14242 98-412)
T3 construct: range 98-end (end not numbered), on cells; also called further deletion of PSGL
T3 sequence: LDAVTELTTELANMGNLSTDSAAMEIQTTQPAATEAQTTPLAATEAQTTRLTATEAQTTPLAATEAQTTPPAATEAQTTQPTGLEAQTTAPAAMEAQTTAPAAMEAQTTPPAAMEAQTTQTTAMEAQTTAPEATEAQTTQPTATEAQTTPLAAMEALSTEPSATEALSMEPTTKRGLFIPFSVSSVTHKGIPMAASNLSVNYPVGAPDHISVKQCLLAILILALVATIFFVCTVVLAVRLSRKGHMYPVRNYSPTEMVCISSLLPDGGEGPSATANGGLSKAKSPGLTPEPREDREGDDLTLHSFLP

T4: PSGL-1 amino-terminal deletion beginning at precursor R38 (UniProt Q14242 38-412)
T4 construct: range 38-end (end not numbered), on cells; also called removal of the first 20 amino acids of the N-terminus of the mature PSGL-1
T4 sequence: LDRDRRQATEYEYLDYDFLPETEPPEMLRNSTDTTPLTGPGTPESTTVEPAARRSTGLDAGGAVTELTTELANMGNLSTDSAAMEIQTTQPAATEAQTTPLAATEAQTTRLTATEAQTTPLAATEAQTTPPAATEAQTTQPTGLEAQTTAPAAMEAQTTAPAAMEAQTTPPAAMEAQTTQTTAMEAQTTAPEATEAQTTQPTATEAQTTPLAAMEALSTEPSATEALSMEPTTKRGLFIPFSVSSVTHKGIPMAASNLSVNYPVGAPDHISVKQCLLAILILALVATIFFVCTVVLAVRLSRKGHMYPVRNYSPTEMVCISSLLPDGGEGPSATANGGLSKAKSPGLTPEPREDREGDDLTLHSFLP

T5: PSGL-1 residues 38-57 with tyrosines converted to phenylalanine, on the truncated PSGL-1 lacking the apical … (UniProt Q14242 118-412)
T5 construct: domain: truncated PSGL-1 lacking the apical domain, on cells
T5 sequence: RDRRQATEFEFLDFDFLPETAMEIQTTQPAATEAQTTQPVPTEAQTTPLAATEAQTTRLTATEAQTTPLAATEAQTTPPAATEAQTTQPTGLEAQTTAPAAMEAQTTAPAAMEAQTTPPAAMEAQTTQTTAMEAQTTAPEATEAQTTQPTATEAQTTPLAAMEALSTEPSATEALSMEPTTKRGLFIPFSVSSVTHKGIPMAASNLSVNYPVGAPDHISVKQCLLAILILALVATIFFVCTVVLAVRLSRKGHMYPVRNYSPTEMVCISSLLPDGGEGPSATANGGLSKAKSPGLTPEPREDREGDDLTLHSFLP

T6: PSGL-1 amino-terminal deletion beginning at precursor E58 (UniProt Q14242 58-412)
T6 construct: range 58-end (end not numbered), on cells; also called removal of the first 40 amino acids of the N-terminus
T6 sequence: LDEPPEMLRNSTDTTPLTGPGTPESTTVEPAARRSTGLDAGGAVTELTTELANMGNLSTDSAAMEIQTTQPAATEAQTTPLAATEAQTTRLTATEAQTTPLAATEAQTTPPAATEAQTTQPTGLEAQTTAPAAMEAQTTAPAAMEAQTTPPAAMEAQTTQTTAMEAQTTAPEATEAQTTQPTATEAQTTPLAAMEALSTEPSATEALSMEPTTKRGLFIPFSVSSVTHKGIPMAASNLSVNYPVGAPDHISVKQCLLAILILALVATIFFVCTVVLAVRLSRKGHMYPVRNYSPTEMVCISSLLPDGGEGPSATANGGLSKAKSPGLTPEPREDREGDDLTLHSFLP

B1: PSGL-1 residues 38-57 (wildtype) appended to the CD43 mucin core (ligand, not shown: small tags and cut ends)
chain: RDRRQATEYEYLDYDFLPETITTNSPETSSRTSGAPVTTAASSLETSRGTSGPPLTMATVSLETSKGTSGPPVTMATDSLETSTGTTGPPVTMTTGSLEPSSGASGPQVSS
modifications: as the filing concludes: sulfated tyrosines at 46, 48 and 51; sLe^x on threonines 44 and 57
notes: Cotransfected with FTVII
B2: PSGL-1 residues 38-57 with threonines converted to alanines, on the CD43 repeat elements and transmembrane domain (ligand, not shown: small tags and cut ends)
chain: B1 chain with T7A, T20A
B3: PSGL-1 residues 38-57 with tyrosines converted to phenylalanine, on the CD43 repeat elements and transmembrane domain (ligand, not shown: small tags and cut ends)
chain: B1 chain with Y9F, Y11F, Y14F
B4: Factor VIII-CD43 synthetic P-selectin ligand (designed binder)
chain: TGDYYEDSYEDISITTNSPETSSRTSGAPVTTAASSLETSRGTSGPPLTMATVSLETSKGTSGPPVTMATDSLETSTGTTGPPVTMTTGSLEPSSGASGPQVSS
modifications: tyrosine sulfation site of Factor VIII; sLe^x (FTVIIh cotransfected)
notes: also called CD43-F8; not shown: flu hemagglutinin oligopeptide tag
B5: PSGL-1-NH2/CD43 rep. (ligand, not shown: small tags and cut ends)
chain: LQLWDTWADEAEKALGPLLARDRRQATEYEYLDYDFLPETEPPEMLRNSTDTTPLTGPGTPESTTVEPAARRSTGLDAGGAVTELTTELANMGNLSTDSAEFITTNSPETSSRTSGAPVTTAASSLETSRGTSGPPLTMATVSLETSKGTSGPPVTMATDSLETSTGTTGPPVTMTTGSLEPSSGASGPQVSS
notes: range mature amino terminus-117; Cotransfected with FTVIIh; also called PSGL-1-NH2/CD43 repeats; PSGL-1 apical domain on the CD43 repeat region
B6: P-selectin:immunoglobulin fusion protein (Fc fusion, UniProt P16109 42-321, looked up)
chain: WTYHYSTKAYSWNISRKYCQNRYTDLVAIQNKNEIDYLNKVLPYYSSYYWIGIRKNNKTWTWVGTKKALTNEAENWADNEPNNKRNNEDCVEIYIKSPSAPGKWNDEHCLKKKHALCYTASCQDMSCSKQGECLETIGNYTCSCYPGFYGPECEYVRECGELELPQHVLMNCSHPLGNFSFNSQCSFHCTDGYQVNGPSKLECLASGIWTNKPPQCLAAQCPPLKIPERGNMTCLHSAKAFQHQSSCSFSCEEGFALVGPEVVQCTASGVWTAPAPVCKA
notes: domain: lectin, EGF-related, and first two short consensus repeat related domains; Made in COS cells; captured from supernatant on wells coated with goat anti-human IgG Fc; also called soluble P-selectin; P-selectin Ig chimera; not shown: hinge, CH2, and CH3 domains of human IgG1

Key:
[1] = target: B6; experiment: adhesion of 51Cr-labelled transfected COS cells to immobilized P-selectin:Ig
Method: (§1) To assess the importance of these residues, the tyrosines were converted to phenylalanine (FIG. 9A). In a second peptide, the threonines were converted to alanines. In addition, a third peptide, containing a quintuple mutation, was prepared such that both conversions were made in a single peptide. […] Cells expressing the resulting chimeras were tested for their ability to bind to immobilized P-selectin (FIG. 9A). […] Expression of the flu tag or sLe^x epitope was not affected in these cells.

[2] = target: B6; experiment: static binding assay, transfected COS cells (with FTVIIh) on plastic coated with P-selectin Ig
Method: The cells were then loaded with 100 µl ^51CrO_4 (1 mCi/ml; DuPont, Boston, Mass.) in 0.9% NaCl plus 100 ml medium by incubating them at 37° C. for 1 hour. Loaded cells were washed twice in PBS and resuspended in 0.2% BSA, 0.15 M NaCl, 3 mM CaCl_2. Variation in labeling rate (counts incorporated per cell) between cells prepared in parallel with the same batch of labeled chromate was typically minimal. […] After the plate was washed twice with PBS, additional protein-binding sites were blocked by an overnight incubation with 200 µl 3% BSA in PBS. The plate was washed with PBS four times and incubated with 200 µl of fusion protein supernatants for 2 hours. Following three PBS washes and one additional wash (in 0.2% BSA, 0.15 M NaCl, 3 mM CaCl_2), 2×10^5 cells/well (in 200 µl 0.2% BSA, 0.15 M NaCl, 3 mM CaCl_2) were added and allowed to bind for 15 minutes at room temperature while the plate rotated on a rotary platform (80 rpm). The plate was washed three times by filling the wells with 200 µl 0.15 M NaCl/3 mM CaCl_2 and then inverting the plate. Adherent cells were lysed by the addition of 200 µl 2% SDS, and labeled chromate was counted with a gamma ray spectrometer.

[3] = target: T1, PSGL-1 deletion mutant lacking the …; experiment: adhesion of 51Cr-labelled transfected COS cells to immobilized P-selectin:Ig
Method: as §1

[4] = target: T2, PSGL-1 amino-terminal deletion …; experiment: as above
Method: as §1

[5] = target: T3, PSGL-1 amino-terminal deletion …; experiment: as above
Method: as §1

[6] = target: T4, PSGL-1 amino-terminal deletion …; experiment: as above
Method: as §1

[7] = target: T5, PSGL-1 residues 38-57 with tyrosines …; experiment: as above
Method: as §1

[8] = target: T6, PSGL-1 amino-terminal deletion …; experiment: as above
Method: as §1

Binder: B1
- binding result [1]: binds

Binder: B2
- binding result [1]: binds

Binder: B3
- binding result [1]: no binding

Binder: B4
- binding result [2]: binds

Binder: B5
- binding result [1]: binds

Binder: B6
- binding result [3]: no binding
- binding result [4]: no binding
- binding result [5]: no binding
- binding result [6]: binds
- binding result [7]: no binding
- binding result [8]: no binding
